# In publication PMC7943762, “Bmp8a is an essential positive regulator of antiviral immunity in zebrafish”:
# T1: rStat1a (Danio rerio (zebrafish), UniProt O93598 1-749)
# T1 sequence: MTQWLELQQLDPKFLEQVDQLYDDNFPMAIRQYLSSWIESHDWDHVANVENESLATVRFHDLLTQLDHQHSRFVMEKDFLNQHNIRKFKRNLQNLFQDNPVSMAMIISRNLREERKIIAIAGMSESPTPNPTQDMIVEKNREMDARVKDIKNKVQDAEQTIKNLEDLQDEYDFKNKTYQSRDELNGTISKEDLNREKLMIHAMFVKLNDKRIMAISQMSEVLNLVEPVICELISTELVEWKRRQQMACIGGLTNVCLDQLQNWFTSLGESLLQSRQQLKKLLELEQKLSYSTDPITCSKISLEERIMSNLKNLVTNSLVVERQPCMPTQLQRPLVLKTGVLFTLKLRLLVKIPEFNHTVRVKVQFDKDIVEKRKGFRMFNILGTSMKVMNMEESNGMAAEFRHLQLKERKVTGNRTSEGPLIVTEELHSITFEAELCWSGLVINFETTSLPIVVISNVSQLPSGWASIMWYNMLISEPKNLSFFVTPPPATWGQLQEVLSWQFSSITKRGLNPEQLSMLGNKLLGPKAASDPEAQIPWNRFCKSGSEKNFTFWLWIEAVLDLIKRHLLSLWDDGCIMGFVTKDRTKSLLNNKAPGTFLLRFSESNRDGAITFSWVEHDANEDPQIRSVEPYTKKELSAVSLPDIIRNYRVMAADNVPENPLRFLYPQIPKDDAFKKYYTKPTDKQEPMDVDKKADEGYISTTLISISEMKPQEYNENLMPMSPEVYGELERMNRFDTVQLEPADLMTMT
# T2: rStat1b (Danio rerio (zebrafish), UniProt B0S789 1-725)
# T2 sequence: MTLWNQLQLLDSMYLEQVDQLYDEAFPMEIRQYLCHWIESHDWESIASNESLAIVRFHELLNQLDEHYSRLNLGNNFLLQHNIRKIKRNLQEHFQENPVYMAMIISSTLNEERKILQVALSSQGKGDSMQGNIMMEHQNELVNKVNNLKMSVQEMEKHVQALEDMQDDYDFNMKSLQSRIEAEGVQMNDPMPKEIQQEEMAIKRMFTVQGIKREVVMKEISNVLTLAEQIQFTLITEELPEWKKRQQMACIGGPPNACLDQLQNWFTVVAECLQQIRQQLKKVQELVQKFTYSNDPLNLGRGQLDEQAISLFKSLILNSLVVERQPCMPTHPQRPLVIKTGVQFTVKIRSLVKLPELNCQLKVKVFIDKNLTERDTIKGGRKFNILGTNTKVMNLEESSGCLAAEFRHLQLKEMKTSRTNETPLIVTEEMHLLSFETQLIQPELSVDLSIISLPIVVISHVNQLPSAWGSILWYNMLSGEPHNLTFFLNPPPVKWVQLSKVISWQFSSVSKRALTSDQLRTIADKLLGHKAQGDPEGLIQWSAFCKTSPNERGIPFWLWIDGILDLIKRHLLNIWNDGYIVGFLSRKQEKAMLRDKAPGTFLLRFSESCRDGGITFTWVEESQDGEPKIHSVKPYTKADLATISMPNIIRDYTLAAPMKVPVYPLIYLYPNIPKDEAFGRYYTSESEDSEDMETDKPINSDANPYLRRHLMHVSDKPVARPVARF
# B1: P1 GAS probe (dsDNA)
# DNA 1: AGACCATTCCGGGAAAACCAA
# DNA 2: TTGGTTTTCCCGGAATGGTCT
# B2: P2 GAS probe (dsDNA)
# DNA 1: TTCAATTTACTAGAACTTCTC
# DNA 2: GAGAAGTTCTAGTAAATTGAA
# B3: P1 mutant probe (dsDNA)
# DNA 1: AGACCAGCCCGGGGCAACCAA
# DNA 2: TTGGTTGCCCCGGGCTGGTCT
# B4: P2 mutant probe (dsDNA)
# DNA 1: TTCAATGCACTAGGCCTTCTC
# DNA 2: GAGAAGGCCTAGTGCATTGAA
# How the values were obtained:
# [1] = target: T1, rStat1a; test: EMSA; poly(dI-dC); anti-His supershift; unlabeled probe competes; Beyotime GS009 EMSA/Gel-Shift binding buffer with poly(dI-dC), 25 C, 25 min preincubation then 30 min with 0.5 uM biotin probe (competitor stated as 0.5 uM), native 6% PAGE; salt and pH not stated; settings: protein: recombinant; tags: His (pET-28a; Ni-NTA, anti-His); chain copies: 2; label: biotin on both strands (5'); blunt
# [2] = target: T2, rStat1b; test: as above; settings: protein: recombinant; tags: His (pET-28a; Ni-NTA, anti-His); chain copies: 2; label: biotin on both strands (5'); blunt
# [3] = target: T1, rStat1a; test: competition; unlabeled competitor vs biotin P1 probe; little change; Beyotime GS009 EMSA/Gel-Shift binding buffer with poly(dI-dC), 25 C, 25 min preincubation then 30 min with 0.5 uM biotin probe (competitor stated as 0.5 uM), native 6% PAGE; salt and pH not stated; settings: protein: recombinant; tags: His (pET-28a; Ni-NTA, anti-His); chain copies: 2; blunt
# [4] = target: T2, rStat1b; test: as above; settings: protein: recombinant; tags: His (pET-28a; Ni-NTA, anti-His); chain copies: 2; blunt
# [5] = target: T1, rStat1a; test: competition; unlabeled competitor vs biotin P2 probe; little change; Beyotime GS009 EMSA/Gel-Shift binding buffer with poly(dI-dC), 25 C, 25 min preincubation then 30 min with 0.5 uM biotin probe (competitor stated as 0.5 uM), native 6% PAGE; salt and pH not stated; settings: protein: recombinant; tags: His (pET-28a; Ni-NTA, anti-His); chain copies: 2; blunt
# [6] = target: T2, rStat1b; test: as above; settings: protein: recombinant; tags: His (pET-28a; Ni-NTA, anti-His); chain copies: 2; blunt
Binder,binding result [1],binding result [2],other results
B1,binds,binds,
B2,binds,binds,
B3,,,binding result [3]: no binding; binding result [4]: no binding
B4,,,binding result [5]: no binding; binding result [6]: no binding
